From US20170137467A1 (CHROMOTEK, published 2017) come the findings set out here.

Positions count from the first letter of the chain named. Square brackets hold non-standard residues; d marks the D form. GABA = NCCCC(=O)O

What all share (test): positional peptide library pulldown on immobilised Nb, LC-MS of supernatant; signal ratio to control GFP-Nb (1 = not captured, near 0 = captured)
The target in assay [1] is T1, BC2T A6R.
T1 construct: positional scanning library member
T1 peptide: Ac-PDRKARVSHWQQ-NH2
The method, boiled down: (§1)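 Unbound peptide left in supernatant after 1 h pulldown in PBS/0.01% CHAPS measured by reversed-phase LC-MS (8–30% eluent B gradient, 20 min).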

The target of assay [2] is T2, BC2T V7N.
T2 construct: positional scanning library member
T2 peptide: Ac-PDRKAANSHWQQ-NH2
The procedure, abridged:
as §1

In assay [3] the target is T3, BC2T D2T.
T3 construct: positional scanning library member
T3 peptide: Ac-PTRKAAVSHWQQ-NH2
The method, boiled down: as §1

The target in assay [4] is T4, BC2T P1S.
T4 construct: positional scanning library member
T4 peptide: Ac-SDRKAAVSHWQQ-NH2
The method, boiled down: as §1

Assay [5] concerns the target T5, BC2T P1C(Abu) (SMILES …).
T5 construct: positional scanning library member
T5 peptide: Ac-[GABA]DRKAAVSHWQQ-NH2
The procedure, abridged: as §1

Assay [6] deals with T6, BC2T R3D.
T6 construct: positional scanning library member
T6 peptide: Ac-PDDKAAVSHWQQ-NH2
The procedure, abridged: as §1

Assay [7] addresses T7, BC2T A6S.
T7 construct: positional scanning library member
T7 peptide: Ac-PDRKASVSHWQQ-NH2
The procedure, abridged: as §1

Assay [8] concerns the target T8, BC2T A5H.
T8 construct: positional scanning library member
T8 peptide: Ac-PDRKHAVSHWQQ-NH2
The method, boiled down:
as §1

For assay [9], the target named is T9, BC2T K4D.
T9 construct: positional scanning library member
T9 peptide: Ac-PDRDAAVSHWQQ-NH2
The method, boiled down: as §1

Assay [10] addresses T10, BC2T D2E.
T10 construct: positional scanning library member
T10 peptide: Ac-PERKAAVSHWQQ-NH2
The method, boiled down:
as §1

The target of assay [11] is T11, BC2T D2F.
T11 construct: positional scanning library member
T11 peptide: Ac-PFRKAAVSHWQQ-NH2
The procedure, abridged: as §1

Assay [12] concerns the target T12, BC2T K4R.
T12 construct: positional scanning library member
T12 peptide: Ac-PDRRAAVSHWQQ-NH2
The procedure, abridged:
as §1

The target in assay [13] is T13, BC2T V7K.
T13 construct: positional scanning library member
T13 peptide: Ac-PDRKAAKSHWQQ-NH2
The procedure, abridged: as §1

Assay [14] concerns the target T14, BC2T P1T.
T14 construct: positional scanning library member
T14 peptide: Ac-TDRKAAVSHWQQ-NH2
The procedure, abridged:
as §1

In assay [15] the target is T15, BC2T A5K.
T15 construct: positional scanning library member
T15 peptide: Ac-PDRKKAVSHWQQ-NH2
The method, boiled down: as §1

For assay [16], the target named is T16, BC2T P1Y.
T16 construct: positional scanning library member
T16 peptide: Ac-YDRKAAVSHWQQ-NH2
The method, boiled down:
as §1

Assay [17] concerns the target T17, BC2T A5T.
T17 construct: positional scanning library member
T17 peptide: Ac-PDRKTAVSHWQQ-NH2
The method, boiled down: as §1

Assay [18] addresses T18, BC2T P1R.
T18 construct: positional scanning library member
T18 peptide: Ac-RDRKAAVSHWQQ-NH2
The method, boiled down:
as §1

Assay [19] addresses T19, BC2T P1E.
T19 construct: positional scanning library member
T19 peptide: Ac-EDRKAAVSHWQQ-NH2
The procedure, abridged: as §1

For assay [20], the target named is T20, BC2T K4W.
T20 construct: positional scanning library member
T20 peptide: Ac-PDRWAAVSHWQQ-NH2
The procedure, abridged: as §1

Assay [21] deals with T21, BC2T A5S.
T21 construct: positional scanning library member
T21 peptide: Ac-PDRKSAVSHWQQ-NH2
The method, boiled down:
as §1

Assay [22] deals with T22, BC2T S8E.
T22 construct: positional scanning library member
T22 peptide: Ac-PDRKAAVEHWQQ-NH2
The method, boiled down: as §1

B1: BC2-NbR106E (VHH)
VHH: QVQLVESGGGLVQPGGSLTLSCTASGFTLDHYDIGWFRQAPGKEREGVSCINNSDDDTYYADSVKGRFTIFMDNAKDTVYLQMNSLKPEDTAIYYCAEARGCKRGEYEYDFWGQGTQVTVSS
notes: headlock mutant of BC2-Nb; immobilised on beads in this assay
In the case of B1, the ratio came out at 0.7 in [1]; 0.4 in [2]; 0.1 in assay [3]; 0.4 in assay [4]; 0.2 in [5]; 1 in [6]. Moreover, the ratio in assay [7] is 0.6; in assay [8], 0.2; in assay [9] it was 1; in assay [10], 0.2; in assay [11], 0.2; in assay [12] it was 0.1. The ratio in assay [13] came to 0.1; in [14] it was 0.6; in [15] it was 0; in [16], 0.2; in [17], 0.1; in assay [18] it was 0.2. Further, the ratio worked out at 0.8 in assay [19], 0.7 in assay [20] and 0.2 in assay [21].

B2: BC2 nanobody (VHH)
VHH: B1 VHH with E106R
notes: immobilised on beads in this assay; also called BC2-Nb; BC2 nanotrap (immobilised)
For the molecule B2, in assay [22], the ratio worked out at 0.7.
